B1: BAR/IMD domain-containing adapter protein 2 (Homo sapiens), Q9UQB8-4 (parent)
chain: MSLSRSEEMHRLTENVYKTIMEQFNPSLRNFIAMGKNYEKALAGVTYAAKGYFDALVKMGELASESQGSKELGDVLFQMAEVHRQIQNQLEEMLKSFHNELLTQLEQKVELDSRYLSAALKKYQTEQRSKGDALDKCQAELKKLRKKSQGSKNPQKYSDKELQYIDAISNKQGELENYVSDGYKTALTEERRRFCFLVEKQCAVAKNSAAYHSKGKELLAQKLPLWQQACADPSKIPERAVQLMQQVASNGATLPSALSASKSNLVISDPIPGAKPLPVPPELAPFVGRMSAQESTPIMNGVTGPDGEDYSPWADRKAAQPKSLSPPQSQSKLSDSYSNTLPVRKSVTPKNSYATTENKTLPRSSSMAAGLERNGRMRVKAIFSHAAGDNSTLLSFKEGDLITLLVPEARDGWHYGESEKTKMRGWFPFSYTRVLDSDGSDRLHMSLQQGKSSSTGNLLDKDDLAIPPPDYGAASRAFPAQTASGFKQRPYSVAVPAFSQGLDDYGARSMSSGSGTLVSTV
B2: Translocated intimin receptor Tir (Escherichia coli O157:H7), Q7DB77 (parent)
chain: MPIGNLGHNPNVNNSIPPAPPLPSQTDGAGGRGQLINSTGPLGSRALFTPVRNSMADSGDNRASDVPGLPVNPMRLAASEITLNDGFEVLHDHGPLDTLNRQIGSSVFRVETQEDGKHIAVGQRNGVETSVVLSDQEYARLQSIDPEGKDKFVFTGGRGGAGHAMVTVASDITEARQRILELLEPKGTGESKGAGESKGVGELRESNSGAENTTETQTSTSTSSLRSDPKLWLALGTVATGLIGLAATGIVQALALTPEPDSPTTTDPDAAASATETATRDQLTKEAFQNPDNQKVNIDELGNAIPSGVLKDDVVANIEEQAKAAGEEAKQQAIENNAQAQKKYDEQQAKRQEELKVSSGAGYGLSGALILGGGIGVAVTAALHRKNQPVEQTTTTTTTTTTTSARTVENKPANNTPAQGNVDTPGSEDTMESRRSSMASTSSTFFDTSSIGTVQNPYADVKTSLHDSQVPTSNSNTSVQNMGNTDSVVYSTIQHPPRDTTDNGARLLGNPSAGIQSTYARLALSGGLRHDMGGLTGGSNSAVNTSNNPPAPGSHRFV

How the values were obtained:
tir_eco27 tir, B7UM99 [1] = variants of: B1; settings: with tir_eco27 tir
tir_eco57 tir, Q7DB77 [2] = variants of: B1; settings: with tir_eco57 tir
tir_eco27 tir, B7UM99 [3] = variants of: B1; settings: with tir_eco27 tir; remark: listed apart in the source
tir_eco57 tir, Q7DB77 [4] = variants of: B1; settings: with tir_eco57 tir; remark: listed apart in the source
tir_eco57 tir, Q7DB77 [5] = variants of: B1; settings: with tir_eco57 tir; remark: listed apart in the source
BAIAP2, Q9UQB8-4 = variants of: B2; settings: with BAIAP2, Q9UQB8-4

Row | Variant | effect of a mutation on the interaction (tir_eco27 tir, B7UM99 [1]) | effect of a mutation on the interaction (tir_eco57 tir, Q7DB77 [2]) | effect of a mutation on the interaction (tir_eco27 tir, B7UM99 [3]) | effect of a mutation on the interaction (tir_eco57 tir, Q7DB77 [4]) | effect of a mutation on the interaction (tir_eco57 tir, Q7DB77 [5]) | effect of a mutation on the interaction (BAIAP2, Q9UQB8-4)
1 | MSLSRSEEMHRLTENVYKTIMEQFNPSLRNFIAMGKNYEKALAGVTYAAKGYFDALVKMGELASESQGSKELGDVLFQMAEVHRQIQNQLEEMLKSFHNELLTQLEQAVELDSRYLSAALKKYQTEQRSKGDALDKCQAELKKLRKKSQGSKNPQKYSDKELQYIDAISNKQGELENYVSDGYKTALTEERRRFCALVEKQCAVAKNSAAYHSKGKELLAQKLPLWQQACADPSKIPERAVQLMQQVASNGATLPSALSASKSNLVISDPIPGAKPLPVPPELAPFVGRMSAQESTPIMNGVTGPDGEDYSPWADRKAAQPKSLSPPQSQSKLSDSYSNTLPVRKSVTPKNSYATTENKTLPRSSSMAAGLERNGRMRVKAIFSHAAGDNSTLLSFKEGDLITLLVPEARDGWHYGESEKTKMRGWFPFSYTRVLDSDGSDRLHMSLQQGKSSSTGNLLDKDDLAIPPPDYGAASRAFPAQTASGFKQRPYSVAVPAFSQGLDDYGARSMSSGSGTLVSTV [K108A;F196A] | disrupting interaction | disrupting interaction | – | – | – | –
2 | MSLSRSEEMHRLTENVYKTIMEQFNPSLRNFIAMGKNYEKALAGVTYAAKGYFDALVKMGELASESQGSKELGDVLFQMAEVHRQIQNQLEEMLKSFHNELLTQLEQKVELDSRYLSAALKKYQTEQRSKGDALDKCQAELKKLRKKSQGSKNPQKYSDKELQYIDAISNKQGELENYVSDGYKTALTEERRRFCALVEKQCAVAKNSAAYHSKGKELLAQKLPLWQQACADPSKIPERAVQLMQQVASNGATLPSALSASKSNLVISDPIPGAKPLPVPPELAPFVGRMSAQESTPIMNGVTGPDGEDYSPWADRKAAQPKSLSPPQSQSKLSDSYSNTLPVRKSVTPKNSYATTENKTLPRSSSMAAGLERNGRMRVKAIFSHAAGDNSTLLSFKEGDLITLLVPEARDGWHYGESEKTKMRGWFPFSYTRVLDSDGSDRLHMSLQQGKSSSTGNLLDKDDLAIPPPDYGAASRAFPAQTASGFKQRPYSVAVPAFSQGLDDYGARSMSSGSGTLVSTV [F196A] | decreasing interaction | – | disrupting interaction | disrupting interaction | decreasing interaction | –
3 | MSLSRSEEMHRLTENVYKTIMEQFNPSLRNFIAMGKNYEKALAGVTYAAKGYFDALVKMGELASESQGSKELGDVLFQMAEVHRQIQNQLEEMLKSFHNELLTQLEQKVELDSRYLSAALKKYQTEQRSKGDALDKCQAELKKLRKKSQGSKNPQKYSDKELQYIDAISNKQGELENYVSDGYKTALTEERRSFCFLVEKQCAVAKNSAAYHSKGKELLAQKLPLWQQACADPSKIPERAVQLMQQVASNGATLPSALSASKSNLVISDPIPGAKPLPVPPELAPFVGRMSAQESTPIMNGVTGPDGEDYSPWADRKAAQPKSLSPPQSQSKLSDSYSNTLPVRKSVTPKNSYATTENKTLPRSSSMAAGLERNGRMRVKAIFSHAAGDNSTLLSFKEGDLITLLVPEARDGWHYGESEKTKMRGWFPFSYTRVLDSDGSDRLHMSLQQGKSSSTGNLLDKDDLAIPPPDYGAASRAFPAQTASGFKQRPYSVAVPAFSQGLDDYGARSMSSGSGTLVSTV [R193S] | disrupting interaction | – | – | – | disrupting interaction | –
4 | MSLSRSEEMHRLTENVYKTIMEQFNPSERNFIAMGKNYEKALAGVTYAAKGYFDALVKMGELASESQGSKELGDVLFQMAEVHRQIQNQLEEMLKSFHNELLTQLEQKVELDSRYLSAALKKYQTEQRSKGDALDKCQAELKKLRKKSQGSKNPQKYSDKELQYIDAISNKQGELENYVSDGYKTALTEERRRFCFLVEKQCAVAKNSAAYHSKGKELLAQKLPLWQQACADPSKIPERAVQLMQQVASNGATLPSALSASKSNLVISDPIPGAKPLPVPPELAPFVGRMSAQESTPIMNGVTGPDGEDYSPWADRKAAQPKSLSPPQSQSKLSDSYSNTLPVRKSVTPKNSYATTENKTLPRSSSMAAGLERNGRMRVKAIFSHAAGDNSTLLSFKEGDLITLLVPEARDGWHYGESEKTKMRGWFPFSYTRVLDSDGSDRLHMSLQQGKSSSTGNLLDKDDLAIPPPDYGAASRAFPAQTASGFKQRPYSVAVPAFSQGLDDYGARSMSSGSGTLVSTV [L28E] | disrupting interaction | – | – | – | disrupting interaction | –
5 | MSLSRSEEMHRLTENVYKTIMEQFNPSLRNFIAMGKNYEKALAGVTYAAKGYFDALVKMGELASESQGSKELGDVLFQMAEVHRQIQNQLEEMLKSFHNELLTQLEQAVELDSRYLSAALKKYQTEQRSKGDALDKCQAELKKLRKKSQGSKNPQKYSDKELQYIDAISNKQGELENYVSDGYKTALTEERRSFCFLVEKQCAVAKNSAAYHSKGKELLAQKLPLWQQACADPSKIPERAVQLMQQVASNGATLPSALSASKSNLVISDPIPGAKPLPVPPELAPFVGRMSAQESTPIMNGVTGPDGEDYSPWADRKAAQPKSLSPPQSQSKLSDSYSNTLPVRKSVTPKNSYATTENKTLPRSSSMAAGLERNGRMRVKAIFSHAAGDNSTLLSFKEGDLITLLVPEARDGWHYGESEKTKMRGWFPFSYTRVLDSDGSDRLHMSLQQGKSSSTGNLLDKDDLAIPPPDYGAASRAFPAQTASGFKQRPYSVAVPAFSQGLDDYGARSMSSGSGTLVSTV [K108A;R193S] | disrupting interaction | disrupting interaction | – | – | – | –
6 | MSLSRSEEMHRLTENVYKTIMEQFNPSLRNFIAMGKNYEKALAGVTYAAKGYFDALVKMGELASESQGSKELGDVLFQMAEVHRQIQNQLEEMLKSFHNELLTQLEQAVELDSRYLSAALKKYQTEQRSKGDALDKCQAELKKLRKKSQGSKNPQKYSDKELQYIDAISNKQGELENYVSDGYKTALTEERRRFCFLVEKQCAVAKNSAAYHSKGKELLAQKLPLWQQACADPSKIPERAVQLMQQVASNGATLPSALSASKSNLVISDPIPGAKPLPVPPELAPFVGRMSAQESTPIMNGVTGPDGEDYSPWADRKAAQPKSLSPPQSQSKLSDSYSNTLPVRKSVTPKNSYATTENKTLPRSSSMAAGLERNGRMRVKAIFSHAAGDNSTLLSFKEGDLITLLVPEARDGWHYGESEKTKMRGWFPFSYTRVLDSDGSDRLHMSLQQGKSSSTGNLLDKDDLAIPPPDYGAASRAFPAQTASGFKQRPYSVAVPAFSQGLDDYGARSMSSGSGTLVSTV [K108A] | – | – | disrupting interaction | disrupting interaction | – | –
7 | Y458F | – | – | – | – | – | disrupting interaction

— IntAct's records for PubMed 21893288
